From publication PMC7773282
Read-outs that look alike come from different tables or passages of the source.

Key:
[1] = biological target: human proton-activated chloride channel (PAC), reconstituted in MSP3D1 lipid nanodiscs (human) (UniProt Q9H813); test: cryo-EM structure
[2] = biological target: human proton-activated chloride channel (PAC), reconstituted in MSP3D1 lipid nanodiscs (human) (UniProt Q9H813); test: cryo-EM structure; remark: listed apart in the source

stoichiometry N [1]: 3
stoichiometry N [2]: 3
Substance: human proton-activated chloride channel (PAC), reconstituted in MSP3D1 lipid nanodiscs (from UniProt Q9H813 1-350) (natural protein)
